Data from paper PMC4160250 (2014).
Where a chain is given by its changes, count along the chain named.

T1: UbP_C F195A (human, UniProt Q8WUN7 129-234, F195A)
T1 sequence: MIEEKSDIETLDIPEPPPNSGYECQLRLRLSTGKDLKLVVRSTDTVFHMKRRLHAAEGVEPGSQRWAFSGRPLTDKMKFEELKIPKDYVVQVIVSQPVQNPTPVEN

T2: UbP_C Q219A/I221A (human, UniProt Q8WUN7 129-234, Q219A | I221A)
T2 sequence: T1 sequence with A67F, Q91A, I93A

B1: USP5_UBA1 (first UBA domain of USP5, residues 631-692) (domain or fragment)
chain: MLDESVIIQLVEMGFPMDACRKAVYYTGNSGAEAAMNWVMSHMDDPDFANPLILPGSSGPGS
B2: UbP_C (C-terminal part of DC-UbP, residues 129-234), His-tagged (domain or fragment)
chain: T1 sequence with A67F

Tests used:
Assay in all cases: NMR
[1] = biological target: T1, UbP_C F195A
[2] = biological target: T2, UbP_C Q219A/I221A
[3] = biological target: B1

## B1
[1]
  Kd: > 3000 µM
[2]
  Kd: 770 µM

## B2
[3]
  Kd: 800 µM
